For this experiment, the target named is stabilized homotrimeric spike protein of SARS-CoV-2 (SARS-CoV-2 (Wuhan-Hu-1 sequence, strain …, UniProt P0DTC2, stabilised)). As to the kind of experiment: bead-based multiplex ACE2 competition assay.

B1: nanobody NM1230 (VHH)
VHH: QVQLVESGGGLVRPGGSLRLSCVGSGFTFSGYAMNWYRQAPGKALELVAGISNAGDLTHYEEPMKGRVAISRANDKNTVYLQMDDLKPEDTAVYRCHAPGVRVGTGERKDVWGQGAQVTVSS
On to B1, for which the binding result was “binds”.

The values above are taken from article doi:10.1101/2020.09.22.308338 (bioRxiv, 2020).
